Laboratory results from patent US20140302524A1.

Key:
[1] = target: full-length human LOXL2 protein (human) (UniProt Q9Y4K0); test: ELISA, LOXL2 coated
[2] = target: full-length human LOXL2 protein (human) (UniProt Q9Y4K0); test: cell-based or functional assay

Sequence of UniProt Q9Y4K0 (Q9Y4K0 other isoform, or with tags, fused parts or gaps): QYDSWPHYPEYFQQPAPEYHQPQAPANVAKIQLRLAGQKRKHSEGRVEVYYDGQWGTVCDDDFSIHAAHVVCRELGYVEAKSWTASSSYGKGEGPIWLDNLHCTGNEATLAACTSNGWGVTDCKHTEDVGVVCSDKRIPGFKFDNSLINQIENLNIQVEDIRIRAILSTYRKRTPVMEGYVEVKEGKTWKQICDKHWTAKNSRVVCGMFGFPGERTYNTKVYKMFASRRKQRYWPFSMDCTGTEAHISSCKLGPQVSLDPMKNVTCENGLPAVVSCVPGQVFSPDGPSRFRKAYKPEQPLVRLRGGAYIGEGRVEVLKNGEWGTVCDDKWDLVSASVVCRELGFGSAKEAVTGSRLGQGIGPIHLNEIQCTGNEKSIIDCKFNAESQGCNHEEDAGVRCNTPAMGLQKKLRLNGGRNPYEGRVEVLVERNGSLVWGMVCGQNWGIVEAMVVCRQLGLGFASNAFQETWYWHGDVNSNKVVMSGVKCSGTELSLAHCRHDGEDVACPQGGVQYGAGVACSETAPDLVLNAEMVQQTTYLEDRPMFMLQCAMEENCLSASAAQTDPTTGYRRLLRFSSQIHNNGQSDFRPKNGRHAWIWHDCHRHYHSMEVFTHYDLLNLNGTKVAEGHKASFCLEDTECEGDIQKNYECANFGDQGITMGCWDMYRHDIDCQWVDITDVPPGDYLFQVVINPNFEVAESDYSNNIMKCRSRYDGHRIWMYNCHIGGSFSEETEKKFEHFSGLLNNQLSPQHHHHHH

Kd [1]: < 1 nM
IC50′ (nM), inhibition of LOXL2 enzymatic activity (Amplex Red assay); substrate DAP, collagen [2]: 62 nM
B1: AB0023 (antibody, from another filing, V domains shown)
VH: QVQLQQSGAELVRPGTSVKVSCKASGYAFTYYLIEWVKQRPGQGLEWIGVINPGSGGTNYNEKFKGKATLTADKSSSTAYMQLSSLTSDDSAVYFCARNWMNFDYWGQGTTLTVSS
VL: DIVMTQAAPSVSVTPGESVSISCRSSKSLLHSNGNTYLYWFLQRPGQSPQFLIYRMSNLASGVPDRFSGSGSGTAFTLRISRVEAEDVGVYYCMQHLEYPYTFGGGTKLEIK
